Experimental findings from patent US20260217863 are described below.

Series [1] concerns the target T1, Fv-1, expressed soluble Fv antibody of clone 5 (His-tag-TdTomato-VH).
T1 chain: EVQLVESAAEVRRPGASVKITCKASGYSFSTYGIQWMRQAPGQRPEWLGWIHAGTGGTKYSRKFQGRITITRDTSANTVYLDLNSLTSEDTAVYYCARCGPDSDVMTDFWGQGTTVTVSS

Series [2] addresses Fv-3, expressed soluble Fv antibody of clone 39 (His-tag-TdTomato-VH).
The target in series [3] is T2, Fv-2, expressed soluble Fv antibody of clone 23 (His-tag-TdTomato-VH).
T2 chain: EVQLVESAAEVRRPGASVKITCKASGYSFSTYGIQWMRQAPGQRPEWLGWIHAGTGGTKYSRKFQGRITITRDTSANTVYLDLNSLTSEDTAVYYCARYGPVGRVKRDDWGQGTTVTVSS

B1: Ribonuclease A (Type II-A) from bovine pancreas (protein)
chain: KETAAAKFERQHMDSSTSAASSSNYCNQMMKSRNLTKDRCKPVNTFVHESLADVQAVCSQKNVACKNGQTNCYQSYSTMSITDCRETGSSKYPNCAYKTTQANKHIIVACEGNPYVPVHFDASV
As for B1, in series [1], the “cleavage of HeLa total RNA by RNase A (0.7 µg/ml), agarose gel, Fv antibody at 10 µM” value (“cleavage of HeLa total RNA” below) is given as “it was observed that the cleavage reaction of RNase A was completely inhibited” and the “stated: RNase A removed from the solution by Fv-1-beads (RNA cleavage read on an agarose gel)” value was “After Fv-Bead treatment: all four lanes (+ to ++++, + : 250 ng Fv-1-bead, RNase A 10 ng) keep faint RNA in the dashed box at about 1000-1500 bp like lane 0, marked 'RNA cleavage inhibition'. Before treatment (no bead) the four RNase A lanes show only a smear near 250 bp”. Also, the “cleavage of HeLa total RNA” value in series [2] is “it was observed that the cleavage reaction of RNase A was completely inhibited”. Also, in series [3], the “cleavage of HeLa total RNA” value is recorded as “it was observed that the cleavage reaction of RNase A was completely inhibited”; the “stated: RNase A removed from the solution by Fv-2-beads (RNA cleavage read on an agarose gel)” value is “After Fv-Bead treatment: all four lanes (+ to ++++, + : 250 ng Fv-2-bead, RNase A 10 ng) keep both RNA bands (in the dashed box at about 1000-1500 bp and near 600 bp) like lane 0, marked 'RNA cleavage inhibition'. Before treatment (no bead) the four RNase A lanes have no band in the box”.
